The supplement of paper PMC10065799, “High-throughput profiling of sequence recognition by tyrosine kinases and SH2 domains using bacterial peptide display” (eLife, 2023)

Each sequence was assayed on c-Src (assay: phosphorylation enrichment, bacterial display (enrichment ratio); higher = better substrate or ligand; peptides without Tyr show the background).
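Throughout, for SH2 binding enrichment of the phosphorylated peptide, bacterial display: peptide library displayed on the E. coli surface as eCPX fusions, selected cells deep-sequenced, score is each peptide's frequency after selection divided by its frequency in the input.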
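Throughout, for phosphorylation enrichment, bacterial display: 11-residue human phosphosite peptides and single-mutation variants displayed on the E. coli surface, counted by deep sequencing, each peptide's frequency after selection divided by its frequency in the unselected input library; frequency after pTyr selection over input frequency; kinase dosed for 20-30% of maximal phosphorylation in three min.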

Going from LTERGYSFTTK [ACTG1_Y198_T203K] to GLAKGYIDPET [CSNK1G2_Y195_E194G], the phosphorylation enrichment falls from 0.982 to 0.554.

Going from KRFRIYHLAIS [BRCA2_Y3009_T3013I_YF] to LEYNEYFRDLN [HPRT1_Y198_D194E], the phosphorylation enrichment rises from 0.448 to 1.14.

Compared with RDMNAYIRPSP [MMAA_Y207], HELYVYKCDEN [DOCK3_Y548] is higher in phosphorylation enrichment: 0.971 for the first, 1.38 for the second.

Going from EIRTQYEVMAS [GFAP_Y242_A244V] to FADIAYNFHHG [PAH_Y166_R169H_YF], the phosphorylation enrichment rises from 0.437 to 0.501.

Compared with DAPVVYLGSFG [PRAG1_Y132_R137G], VVEFGYEFFAK [PPP1CB_Y254_D252Y_YF] is lower in phosphorylation enrichment: 0.507 for the first, 0.503 for the second.

First: AIMSFYATLID [RYR1_Y2426_A2428T]
Second: TLDTDYQMTKR [ADA_Y308]
The phosphorylation enrichment of the first is higher: 0.486 for the first, 0.35 for the second.

Going from NKFTTYLPRLP [C9orf24_Y126_YF] to GFRVFYTPDSR [PTPRF_Y451_YF], the phosphorylation enrichment rises from 0.425 to 0.449.

First: PYIDSYEKDVA [PGM1_Y521_L516P]
Second: GIFEDYVEGLR [MYL6_Y89_T85I_YF]
The phosphorylation enrichment of the first is higher: 0.703 for the first, 0.536 for the second.

First: HFECKYVINAI [MAOA_Y268_YF]
Second: RHFTTYDTNGR [CLCA1_Y665_Y661H]
The phosphorylation enrichment of the first is lower: 0.648 for the first, 0.876 for the second.

First: QQLQGYVPSNY [FRK_Y99_I100V]
Second: IGHGSYAKVLL [PRKCZ_Y263_R260H]
The phosphorylation enrichment of the first is lower: 0.413 for the first, 0.454 for the second.

Going from SDYSRYARTSI [TERT_Y949_S948R] to PKSLFYLLLKL [TRPC6_Y775], the phosphorylation enrichment rises from 0.444 to 1.74.

First: AIYRRYSKFFD [SH3PXD2B_Y45]
Second: NLNGKYNKPRA [ANGPTL3_Y417]
The phosphorylation enrichment of the first is higher: 0.636 for the first, 0.334 for the second.

Compared with LITTLYIGFLG [KCNQ1_Y267], TMKSHYMELFD [BBS2_Y644_R643H_YF] is lower in phosphorylation enrichment: 3.29 for the first, 0.431 for the second.

Compared with VVLGSYDRLRV [IFT172_Y260], HNLYSYPTKHE [MYO3A_Y1396] is higher in phosphorylation enrichment: 0.405 for the first, 2.96 for the second.

With APNEFYDGDHD [HDAC3_Y414] the phosphorylation enrichment was 0.574.

The sequences below were run against Grb2 SH2 (UniProt P62993) (assay: SH2 binding enrichment of the phosphorylated peptide, bacterial display (enrichment ratio); higher = better substrate or ligand; peptides without Tyr show the background).
Sequence of Grb2 SH2 (P62993 whole entry, looked up): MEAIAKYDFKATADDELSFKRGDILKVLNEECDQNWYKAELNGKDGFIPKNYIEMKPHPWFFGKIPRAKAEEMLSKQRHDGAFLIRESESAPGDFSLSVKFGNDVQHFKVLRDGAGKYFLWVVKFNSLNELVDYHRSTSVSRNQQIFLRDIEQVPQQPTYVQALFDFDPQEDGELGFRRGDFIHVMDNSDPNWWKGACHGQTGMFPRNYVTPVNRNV

Compared with LTERGYSFTTK [ACTG1_Y198_T203K], GLAKGYIDPET [CSNK1G2_Y195_E194G] is higher in SH2 binding enrichment: 0.679 for the first, 0.823 for the second.

Going from KRFRIYHLAIS [BRCA2_Y3009_T3013I_YF] to LEYNEYFRDLN [HPRT1_Y198_D194E], the SH2 binding enrichment falls from 1.81 to 0.998.

First: RDMNAYIRPSP [MMAA_Y207]
Second: HELYVYKCDEN [DOCK3_Y548]
The SH2 binding enrichment of the first is lower: 0.804 for the first, 1.03 for the second.

Going from EIRTQYEVMAS [GFAP_Y242_A244V] to FADIAYNFHHG [PAH_Y166_R169H_YF], the SH2 binding enrichment falls from 0.767 to 0.62.

Compared with DAPVVYLGSFG [PRAG1_Y132_R137G], VVEFGYEFFAK [PPP1CB_Y254_D252Y_YF] is higher in SH2 binding enrichment: 0.646 for the first, 0.96 for the second.

Going from AIMSFYATLID [RYR1_Y2426_A2428T] to TLDTDYQMTKR [ADA_Y308], the SH2 binding enrichment rises from 0.869 to 0.92.

First: NKFTTYLPRLP [C9orf24_Y126_YF]
Second: GFRVFYTPDSR [PTPRF_Y451_YF]
The SH2 binding enrichment of the first is lower: 0.927 for the first, 1.17 for the second.

Compared with PYIDSYEKDVA [PGM1_Y521_L516P], GIFEDYVEGLR [MYL6_Y89_T85I_YF] is higher in SH2 binding enrichment: 0.802 for the first, 0.866 for the second.

Going from HFECKYVINAI [MAOA_Y268_YF] to RHFTTYDTNGR [CLCA1_Y665_Y661H], the SH2 binding enrichment rises from 0.619 to 0.716.

First: QQLQGYVPSNY [FRK_Y99_I100V]
Second: IGHGSYAKVLL [PRKCZ_Y263_R260H]
The SH2 binding enrichment of the first is lower: 0.775 for the first, 0.868 for the second.

First: SDYSRYARTSI [TERT_Y949_S948R]
Second: PKSLFYLLLKL [TRPC6_Y775]
The SH2 binding enrichment of the first is lower: 0.755 for the first, 0.998 for the second.

Going from AIYRRYSKFFD [SH3PXD2B_Y45] to NLNGKYNKPRA [ANGPTL3_Y417], the SH2 binding enrichment rises from 0.674 to 1.3.

Going from LITTLYIGFLG [KCNQ1_Y267] to TMKSHYMELFD [BBS2_Y644_R643H_YF], the SH2 binding enrichment falls from 1.06 to 0.824.

First: VVLGSYDRLRV [IFT172_Y260]
Second: HNLYSYPTKHE [MYO3A_Y1396]
The SH2 binding enrichment of the first is higher: 0.724 for the first, 0.619 for the second.

APNEFYDGDHD [HDAC3_Y414] gave an SH2 binding enrichment of 0.727.

The sequences below were run against SHP2-C SH2 in the same assay as above.

Compared with LTERGYSFTTK [ACTG1_Y198_T203K], GLAKGYIDPET [CSNK1G2_Y195_E194G] is higher in SH2 binding enrichment: 0.653 for the first, 0.922 for the second.

Compared with KRFRIYHLAIS [BRCA2_Y3009_T3013I_YF], LEYNEYFRDLN [HPRT1_Y198_D194E] is lower in SH2 binding enrichment: 1.43 for the first, 0.592 for the second.

Compared with RDMNAYIRPSP [MMAA_Y207], HELYVYKCDEN [DOCK3_Y548] is higher in SH2 binding enrichment: 0.693 for the first, 0.939 for the second.

Going from EIRTQYEVMAS [GFAP_Y242_A244V] to FADIAYNFHHG [PAH_Y166_R169H_YF], the SH2 binding enrichment falls from 0.89 to 0.564.

Going from DAPVVYLGSFG [PRAG1_Y132_R137G] to VVEFGYEFFAK [PPP1CB_Y254_D252Y_YF], the SH2 binding enrichment falls from 6.03 to 0.635.

Compared with AIMSFYATLID [RYR1_Y2426_A2428T], TLDTDYQMTKR [ADA_Y308] is lower in SH2 binding enrichment: 0.673 for the first, 0.597 for the second.

Compared with NKFTTYLPRLP [C9orf24_Y126_YF], GFRVFYTPDSR [PTPRF_Y451_YF] is lower in SH2 binding enrichment: 1.02 for the first, 0.861 for the second.

Going from PYIDSYEKDVA [PGM1_Y521_L516P] to GIFEDYVEGLR [MYL6_Y89_T85I_YF], the SH2 binding enrichment falls from 0.724 to 0.645.

Compared with HFECKYVINAI [MAOA_Y268_YF], RHFTTYDTNGR [CLCA1_Y665_Y661H] is higher in SH2 binding enrichment: 0.49 for the first, 0.642 for the second.

Going from QQLQGYVPSNY [FRK_Y99_I100V] to IGHGSYAKVLL [PRKCZ_Y263_R260H], the SH2 binding enrichment rises from 0.604 to 26.8.

Going from SDYSRYARTSI [TERT_Y949_S948R] to PKSLFYLLLKL [TRPC6_Y775], the SH2 binding enrichment rises from 0.535 to 1.31.

First: AIYRRYSKFFD [SH3PXD2B_Y45]
Second: NLNGKYNKPRA [ANGPTL3_Y417]
The SH2 binding enrichment of the first is lower: 0.495 for the first, 0.875 for the second.

Compared with LITTLYIGFLG [KCNQ1_Y267], TMKSHYMELFD [BBS2_Y644_R643H_YF] is higher in SH2 binding enrichment: 0.808 for the first, 1.48 for the second.

First: VVLGSYDRLRV [IFT172_Y260]
Second: HNLYSYPTKHE [MYO3A_Y1396]
The SH2 binding enrichment of the first is higher: 0.863 for the first, 0.752 for the second.

With APNEFYDGDHD [HDAC3_Y414] the SH2 binding enrichment was 0.632.

The sequences below were run against c-Src SH2 in the same assay as above.

First: LTERGYSFTTK [ACTG1_Y198_T203K]
Second: GLAKGYIDPET [CSNK1G2_Y195_E194G]
The SH2 binding enrichment of the first is lower: 0.454 for the first, 0.5 for the second.

Going from KRFRIYHLAIS [BRCA2_Y3009_T3013I_YF] to LEYNEYFRDLN [HPRT1_Y198_D194E], the SH2 binding enrichment falls from 1.56 to 0.451.

First: RDMNAYIRPSP [MMAA_Y207]
Second: HELYVYKCDEN [DOCK3_Y548]
The SH2 binding enrichment of the first is lower: 0.581 for the first, 0.796 for the second.

Compared with EIRTQYEVMAS [GFAP_Y242_A244V], FADIAYNFHHG [PAH_Y166_R169H_YF] is lower in SH2 binding enrichment: 6.97 for the first, 0.566 for the second.

Compared with DAPVVYLGSFG [PRAG1_Y132_R137G], VVEFGYEFFAK [PPP1CB_Y254_D252Y_YF] is higher in SH2 binding enrichment: 0.479 for the first, 1.09 for the second.

First: AIMSFYATLID [RYR1_Y2426_A2428T]
Second: TLDTDYQMTKR [ADA_Y308]
The SH2 binding enrichment of the first is lower: 0.541 for the first, 0.558 for the second.

Going from NKFTTYLPRLP [C9orf24_Y126_YF] to GFRVFYTPDSR [PTPRF_Y451_YF], the SH2 binding enrichment falls from 0.824 to 0.598.

First: PYIDSYEKDVA [PGM1_Y521_L516P]
Second: GIFEDYVEGLR [MYL6_Y89_T85I_YF]
The SH2 binding enrichment of the first is higher: 0.647 for the first, 0.462 for the second.

Going from HFECKYVINAI [MAOA_Y268_YF] to RHFTTYDTNGR [CLCA1_Y665_Y661H], the SH2 binding enrichment rises from 0.432 to 0.494.

Compared with QQLQGYVPSNY [FRK_Y99_I100V], IGHGSYAKVLL [PRKCZ_Y263_R260H] is higher in SH2 binding enrichment: 0.562 for the first, 4.8 for the second.

First: SDYSRYARTSI [TERT_Y949_S948R]
Second: PKSLFYLLLKL [TRPC6_Y775]
The SH2 binding enrichment of the first is lower: 0.723 for the first, 0.747 for the second.

First: AIYRRYSKFFD [SH3PXD2B_Y45]
Second: NLNGKYNKPRA [ANGPTL3_Y417]
The SH2 binding enrichment of the first is lower: 0.511 for the first, 1.18 for the second.

Going from LITTLYIGFLG [KCNQ1_Y267] to TMKSHYMELFD [BBS2_Y644_R643H_YF], the SH2 binding enrichment rises from 1.02 to 7.06.

First: VVLGSYDRLRV [IFT172_Y260]
Second: HNLYSYPTKHE [MYO3A_Y1396]
The SH2 binding enrichment of the first is lower: 1.17 for the first, 1.8 for the second.

Sequence APNEFYDGDHD [HDAC3_Y414] has an SH2 binding enrichment of 0.57.
